Measurements reported in patent US20250026836A1 (UCB, published 2025).
Positions count from the first letter of the chain named.

B1: 12389 (chimeric rabbit V regions/human Fc) expressed as hIgG1 (antibody, V domains shown)
VH: QSVEESGGRLVTPGTPLTLTCTVSGIDLSSNAMSWVRQAPGEGLEWIGTISSGGRTYYASWAKGRFTISKTSTTVDLKIPSPTTEDTATYFCGRGDGATGFNIWGPGTLVTVSS
VL: ALVMTQTPASVSEPVGGTVTIKCQASQSIYSYLSWYQQKPGQPPKLLIYKASTLASGVSSRFKGSGSGTQFTLTISDLECGDAATYYCQNHWNVGGNGWPFGGGTEVVVK
B2: Rabbit Fab (VR12389) (Fab, V domains shown)
VH: B1 VH
VL: ALVMTQTPASVSEPVGGTVTIKCQASQSIYSYLSWYQQKPGQPPKLLIYKASTLASGVSSRFKGSGSGTQFTLTISDLECGDAATYYCQNHWNVGGNGWPFGGGTEVVVKR
notes: Used for the crystal structure; also called VR12389 RbFab
B3: 12389 (chimeric rabbit V regions/human Fc) expressed as hIgG4P (antibody, V domains shown)
VH: B1 VH
VL: B1 VL
B4: 12389gL2gH1 hIgG4P (antibody)
heavy: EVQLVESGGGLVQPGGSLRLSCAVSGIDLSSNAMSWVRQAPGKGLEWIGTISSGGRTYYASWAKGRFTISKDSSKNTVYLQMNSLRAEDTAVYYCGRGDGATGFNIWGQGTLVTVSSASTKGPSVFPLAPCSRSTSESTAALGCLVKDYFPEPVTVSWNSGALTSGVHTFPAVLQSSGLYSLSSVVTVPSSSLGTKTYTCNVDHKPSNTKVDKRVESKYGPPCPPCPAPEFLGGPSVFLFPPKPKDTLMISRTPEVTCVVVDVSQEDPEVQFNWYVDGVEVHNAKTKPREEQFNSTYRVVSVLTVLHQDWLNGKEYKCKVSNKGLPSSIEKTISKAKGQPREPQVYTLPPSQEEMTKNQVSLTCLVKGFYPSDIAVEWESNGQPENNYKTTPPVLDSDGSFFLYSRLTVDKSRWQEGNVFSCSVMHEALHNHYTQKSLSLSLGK
light: AIVLTQSPSSLSASVGDRVTITCQASQSIYSYLSWYQQKPGKAPKLLIYKASTLASGVPSRFSGSGSGTDFTLTISSLQPEDFATYYCQNHWNVGGNGWPFGGGTKVEIKRTVAAPSVFIFPPSDEQLKSGTASVVCLLNNFYPREAKVQWKVDNALQSGNSQESVTEQDSKDSTYSLSSTLTLSKADYEKHKVYACEVTHQGLSSPVTKSFNRGEC
B5: 12389gL1gH1 hIgG4P (antibody, V domains shown)
VH: EVQLVESGGGLVQPGGSLRLSCAVSGIDLSSNAMSWVRQAPGKGLEWIGTISSGGRTYYASWAKGRFTISKDSSKNTVYLQMNSLRAEDTAVYYCGRGDGATGFNIWGQGTLVTVSS
VL: AIVLTQSPSSLSASVGDRVTITCQASQSIYSYLSWYQQKPGKAPKLLIYKASTLASGVPSRFSGSGSGTQFTLTISSLQPEDFATYYCQNHWNVGGNGWPFGGGTKVEIKR
B6: 12389gL2gH4 hIgG4P (antibody, V domains shown)
VH: B5 VH with V24A
VL: B5 VL with Q70D
B7: 12389gL2gH5 hIgG4P (antibody, V domains shown)
VH: B5 VH with I48V
VL: B5 VL with Q70D
B8: 12389gL2gH6 hIgG4P (antibody, V domains shown)
VH: B5 VH with G49S
VL: B5 VL with Q70D
B9: 12389gL2gH8 hIgG4P (antibody, V domains shown)
VH: B5 VH with K71R
VL: B5 VL with Q70D
B10: 12389gL2gH9 hIgG4P (antibody, V domains shown)
VH: B5 VH with S73N
VL: B5 VL with Q70D
B11: 12389gL2gH11 hIgG4P (antibody, V domains shown)
VH: B5 VH with V78L
VL: B5 VL with Q70D
B12: 12389gL2gH12 hIgG4P (antibody, V domains shown)
VH: B5 VH with G96A
VL: B5 VL with Q70D
B13: 12389gL2gH13 hIgG4P (antibody, V domains shown)
VH: B5 VH with V24A, S73N
VL: B5 VL with Q70D
B14: 12389gL2gH14 hIgG4P (antibody, V domains shown)
VH: B5 VH with V24A, G96A
VL: B5 VL with Q70D
B15: 12389gL2gH15 hIgG4P (antibody, V domains shown)
VH: B5 VH with S73N, G96A
VL: B5 VL with Q70D
B16: 12389gL2gH16 hIgG4P (antibody)
heavy: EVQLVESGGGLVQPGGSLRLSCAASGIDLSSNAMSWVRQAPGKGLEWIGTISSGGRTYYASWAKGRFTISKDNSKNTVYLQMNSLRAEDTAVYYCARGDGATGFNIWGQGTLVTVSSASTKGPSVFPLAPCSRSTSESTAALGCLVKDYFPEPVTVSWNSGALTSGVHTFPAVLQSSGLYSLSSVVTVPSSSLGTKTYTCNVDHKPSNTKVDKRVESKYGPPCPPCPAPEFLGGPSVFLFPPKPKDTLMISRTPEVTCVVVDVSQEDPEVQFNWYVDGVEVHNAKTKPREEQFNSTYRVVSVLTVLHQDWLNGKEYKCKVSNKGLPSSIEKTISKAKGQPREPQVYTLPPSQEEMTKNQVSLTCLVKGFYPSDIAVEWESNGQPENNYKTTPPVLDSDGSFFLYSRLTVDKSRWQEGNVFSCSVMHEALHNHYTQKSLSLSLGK
light: B4 light
notes: also called Graft 12389gL2gH16
B17: 12389gL3gH1 hIgG4P (antibody)
heavy: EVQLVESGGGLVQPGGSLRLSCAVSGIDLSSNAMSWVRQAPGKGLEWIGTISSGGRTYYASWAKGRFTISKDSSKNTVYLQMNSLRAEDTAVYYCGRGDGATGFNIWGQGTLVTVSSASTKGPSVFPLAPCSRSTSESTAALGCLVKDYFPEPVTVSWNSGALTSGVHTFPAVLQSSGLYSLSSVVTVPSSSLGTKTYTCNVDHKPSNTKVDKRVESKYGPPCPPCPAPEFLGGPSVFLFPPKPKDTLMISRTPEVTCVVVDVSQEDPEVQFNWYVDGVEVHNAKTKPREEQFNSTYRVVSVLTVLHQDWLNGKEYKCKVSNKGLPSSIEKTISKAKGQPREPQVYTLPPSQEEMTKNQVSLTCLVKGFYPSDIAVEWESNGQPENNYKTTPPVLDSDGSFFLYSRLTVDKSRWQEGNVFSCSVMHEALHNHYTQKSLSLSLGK
light: B4 light with V3Q
B18: 12389gL3gH16 hIgG4P (antibody)
heavy: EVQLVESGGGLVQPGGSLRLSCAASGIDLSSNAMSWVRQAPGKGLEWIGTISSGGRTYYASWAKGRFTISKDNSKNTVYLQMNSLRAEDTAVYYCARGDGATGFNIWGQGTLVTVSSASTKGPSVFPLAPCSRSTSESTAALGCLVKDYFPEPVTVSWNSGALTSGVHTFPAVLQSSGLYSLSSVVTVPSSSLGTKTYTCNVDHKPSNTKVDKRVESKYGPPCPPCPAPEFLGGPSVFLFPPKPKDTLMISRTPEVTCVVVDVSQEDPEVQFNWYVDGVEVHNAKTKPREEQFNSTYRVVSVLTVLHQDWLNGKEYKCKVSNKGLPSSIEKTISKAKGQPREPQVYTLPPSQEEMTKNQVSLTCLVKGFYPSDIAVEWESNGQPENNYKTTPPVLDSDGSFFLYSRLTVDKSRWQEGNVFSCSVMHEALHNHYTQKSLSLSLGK
light: B4 light with V3Q

Biological target: T1, Human HLA-G ECD + B2m (soluble, AVItev10His tag) (human)
T1 construct: also called soluble HLA-G
Experiment: SPR, 25 C, hIgG1 captured via anti-human Fc, HLA-G ECD+B2m 50 nM as analyte, first experiment

Kd | koff | kon | Binder
10.8 nM | 0.0091 s⁻¹ | 841000 M⁻¹ s⁻¹ | B1

Biological target: T1, Human HLA-G ECD + B2m (soluble, …)
Experiment: SPR, 25 C, hIgG1 captured via anti-human Fc, HLA-G ECD+B2m 50 nM as analyte, second experiment

Kd | koff | kon | Binder
11.7 nM | 0.00918 s⁻¹ | 782000 M⁻¹ s⁻¹ | B1

Biological target: T2, PeptideB2mHLAG C42S mut (single-chain peptide-B2m-HLA-G ECD fusion, His tag removed) (human)
T2 construct: Used for complexing and in the crystal structure; also called HLA-G fusion protein
Experiment: complex formation and size exclusion chromatography before crystallisation

binding result | Binder
binds | B2

Biological target: T1, Human HLA-G ECD + B2m (soluble, …)
Experiment: SPR, 25 C, hIgG4P captured via anti-human Fc, HLA-G ECD+B2m 50 nM as analyte;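 note: biacore T200 readout, 60 s association then 150 s dissociation, reference-cell background subtracted, kinetics fitted to a 1:1 binding model with local Rmax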

Kd | koff | kon | Binder
9.69 nM | 0.0092 s⁻¹ | 949000 M⁻¹ s⁻¹ | B3
7.63 nM | 0.00708 s⁻¹ | 928000 M⁻¹ s⁻¹ | B4
7.99 nM | 0.00678 s⁻¹ | 848000 M⁻¹ s⁻¹ | B5
8.09 nM | 0.00718 s⁻¹ | 888000 M⁻¹ s⁻¹ | B6
12.4 nM | 0.0101 s⁻¹ | 817000 M⁻¹ s⁻¹ | B7
12.5 nM | 0.0104 s⁻¹ | 839000 M⁻¹ s⁻¹ | B8
15.4 nM | 0.0121 s⁻¹ | 787000 M⁻¹ s⁻¹ | B9
7.09 nM | 0.00603 s⁻¹ | 850000 M⁻¹ s⁻¹ | B10
10.7 nM | 0.00907 s⁻¹ | 850000 M⁻¹ s⁻¹ | B11
7.39 nM | 0.00624 s⁻¹ | 844000 M⁻¹ s⁻¹ | B12
6.61 nM | 0.00632 s⁻¹ | 956000 M⁻¹ s⁻¹ | B13
7.58 nM | 0.00664 s⁻¹ | 875000 M⁻¹ s⁻¹ | B14
6.33 nM | 0.00567 s⁻¹ | 896000 M⁻¹ s⁻¹ | B15
6.06 nM |  |  | B16
8.25 nM | 0.00697 s⁻¹ | 845000 M⁻¹ s⁻¹ | B17
6.72 nM |  |  | B18
